Values of other authors, collected in patent US5874218.
pKd: −log10 of the molar value.

System: T1, VEGF165 (Homo sapiens), P15692-4
T1 sequence: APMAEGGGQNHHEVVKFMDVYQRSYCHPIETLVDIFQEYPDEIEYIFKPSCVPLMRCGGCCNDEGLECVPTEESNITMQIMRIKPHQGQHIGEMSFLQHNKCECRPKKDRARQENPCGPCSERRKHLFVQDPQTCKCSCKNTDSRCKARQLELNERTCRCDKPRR
Details: modified to be nuclease resistant (Green et al. 1995); CITED; value stated for the ligand with reference to Green et al. 1995

For “NTTTTACCCUGAUGGUAGACGCCGGGGUGTTTTT [NX-244]”, the pKd is listed as 9.85.
